The source of these data is patent US20200113969.

In series [1] the test system is deflamin isolated from Lupinus albus seeds.
Series [2] deals with peak 1 of the RP-HPLC fractionation of L. albus deflamin.
The target in series [3] is peak 2 of the RP-HPLC fractionation of L. albus deflamin (UniProt F5B8W8).
The target in series [4] is peak 3 of the RP-HPLC fractionation of L. albus deflamin (UniProt F5B8W8).
The subject of series [5] is peak 4 of the RP-HPLC fractionation of L. albus deflamin.

MMP-9 (commercial enzyme, Sigma), sequence (chain, as listed by the source): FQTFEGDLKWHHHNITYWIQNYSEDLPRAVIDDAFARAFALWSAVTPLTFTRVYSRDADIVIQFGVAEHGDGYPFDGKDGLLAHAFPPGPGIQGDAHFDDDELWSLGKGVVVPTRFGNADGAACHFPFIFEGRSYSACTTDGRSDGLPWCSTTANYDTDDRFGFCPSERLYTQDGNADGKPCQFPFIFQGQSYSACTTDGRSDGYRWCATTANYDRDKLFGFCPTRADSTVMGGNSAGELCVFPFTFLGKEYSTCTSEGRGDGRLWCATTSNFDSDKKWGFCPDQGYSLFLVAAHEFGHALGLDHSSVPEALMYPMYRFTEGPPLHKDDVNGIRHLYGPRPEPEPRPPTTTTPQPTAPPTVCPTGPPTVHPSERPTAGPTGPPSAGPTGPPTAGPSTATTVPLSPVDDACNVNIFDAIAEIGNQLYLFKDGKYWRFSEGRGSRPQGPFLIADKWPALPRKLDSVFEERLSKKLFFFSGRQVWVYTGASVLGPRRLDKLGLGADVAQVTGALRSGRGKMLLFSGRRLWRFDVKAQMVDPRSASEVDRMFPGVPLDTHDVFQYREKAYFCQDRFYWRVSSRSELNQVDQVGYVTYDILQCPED
peak 2 of the RP-HPLC fractionation of L. albus deflamin, sequence (F5B8W8 whole entry, looked up): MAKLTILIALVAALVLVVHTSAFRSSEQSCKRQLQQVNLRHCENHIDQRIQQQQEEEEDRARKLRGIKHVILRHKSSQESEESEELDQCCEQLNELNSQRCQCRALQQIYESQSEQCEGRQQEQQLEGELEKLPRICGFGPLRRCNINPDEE
peak 3 of the RP-HPLC fractionation of L. albus deflamin, sequence (F5B8W8 whole entry, looked up): as above
deflamin isolated from Lupinus albus seeds, sequence (chain, as listed by the source, chain 1 of 2): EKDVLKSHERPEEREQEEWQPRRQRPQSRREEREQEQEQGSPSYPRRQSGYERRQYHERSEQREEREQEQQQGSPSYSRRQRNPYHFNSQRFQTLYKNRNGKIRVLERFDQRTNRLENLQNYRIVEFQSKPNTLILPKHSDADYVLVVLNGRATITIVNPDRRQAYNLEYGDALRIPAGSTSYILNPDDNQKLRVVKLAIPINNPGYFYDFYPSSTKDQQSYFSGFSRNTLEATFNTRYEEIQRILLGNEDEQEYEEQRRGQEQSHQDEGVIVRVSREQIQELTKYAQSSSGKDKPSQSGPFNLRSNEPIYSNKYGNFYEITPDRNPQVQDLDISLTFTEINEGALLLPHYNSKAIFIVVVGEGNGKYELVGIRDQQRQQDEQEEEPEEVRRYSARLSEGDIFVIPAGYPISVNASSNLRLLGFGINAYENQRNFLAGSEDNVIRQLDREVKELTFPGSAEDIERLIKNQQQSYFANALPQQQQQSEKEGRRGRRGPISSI
deflamin isolated from Lupinus albus seeds, sequence (chain, as listed by the source, chain 2 of 2): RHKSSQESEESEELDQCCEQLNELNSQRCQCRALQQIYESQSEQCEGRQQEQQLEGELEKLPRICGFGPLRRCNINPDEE

Regarding MMP-9 (commercial enzyme, Sigma), in series [1], the “MMP-9 proteolytic activity on DQ-gelatin, deflamin at 50 µg/mL” value was “the highest inhibition (P<0.05) detected for deflamin, which induced a reduction greater than 80% of MMP-9 activity”. Further, the “MMP-9 proteolytic activity, DQ fluorogenic assay, 25 µg/ml” value in series [2] is “all the selected peaks presented some degree of MMP inhibition”; in series [3], “all the selected peaks presented some degree of MMP inhibition”; in series [4] it was “all the selected peaks presented some degree of MMP inhibition and also inhibited invasion, but peak 3 was the one with the highest observed activities”; in series [5], “all the selected peaks presented some degree of MMP inhibition”.
